PMC4155688, “Mapping the Putative G Protein-coupled Receptor (GPCR) Docking Site on GPCR Kinase 2” (The Journal of Biological Chemistry, 2014)
Where a chain is given by its changes, count along the chain named. Names may count otherwise. Each block holds one binder with its values, some of them ahead of it.

Assays:
α2AAR-GFP^2 [1] = molecular target: T1, α2AAR-GFP^2 (UniProt P08913 1-465); test: FRET or BRET; living HEK293T cells co-transfected with α2AAR-GFP^2 and RlucII-GRK2; dose-response to norepinephrine read 6 min after addition; NOR-promoted BRET fitted to biphasic (two-site) curves with a high-affinity and a low-affinity component; settings: partners not purified
T1 construct: α2A-adrenergic receptor; also called α2A-adrenergic receptor; source: HEK293T, transfected, in living cells; not shown: GFP^2, C-terminal (from the name α2AAR-GFP^2), kept
T1 sequence (looked up): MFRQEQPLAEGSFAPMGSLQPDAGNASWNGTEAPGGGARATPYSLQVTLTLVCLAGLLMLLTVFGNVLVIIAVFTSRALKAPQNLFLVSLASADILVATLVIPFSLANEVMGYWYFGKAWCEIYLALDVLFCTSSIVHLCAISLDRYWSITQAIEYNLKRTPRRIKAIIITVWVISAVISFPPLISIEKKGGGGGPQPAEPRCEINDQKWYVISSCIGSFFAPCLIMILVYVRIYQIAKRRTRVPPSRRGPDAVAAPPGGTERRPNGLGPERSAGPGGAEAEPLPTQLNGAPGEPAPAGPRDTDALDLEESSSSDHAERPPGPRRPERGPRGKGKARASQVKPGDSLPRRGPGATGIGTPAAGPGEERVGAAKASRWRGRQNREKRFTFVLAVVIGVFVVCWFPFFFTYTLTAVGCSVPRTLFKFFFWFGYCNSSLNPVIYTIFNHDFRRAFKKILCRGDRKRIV

α2AAR-GFP^2 [2] = molecular target: T1, α2AAR-GFP^2; test: FRET or BRET; living HEK293T cells co-transfected with α2AAR-GFP^2 (acceptor) and RlucII-GRK2 (donor); in PBS at room temperature, with or without 100 μM norepinephrine (one-point and titration: 6 min; time course); coelenterazine 400A 5 μM; net or agonist-promoted BRET; settings: partners not purified

B1: RlucII-GRK2 (wild type) (enzyme, human, UniProt P25098 1-689, looked up)
chain: MADLEAVLADVSYLMAMEKSKATPAARASKKILLPEPSIRSVMQKYLEDRGEVTFEKIFSQKLGYLLFRDFCLNHLEEARPLVEFYEEIKKYEKLETEEERVARSREIFDSYIMKELLACSHPFSKSATEHVQGHLGKKQVPPDLFQPYIEEICQNLRGDVFQKFIESDKFTRFCQWKNVELNIHLTMNDFSVHRIIGRGGFGEVYGCRKADTGKMYAMKCLDKKRIKMKQGETLALNERIMLSLVSTGDCPFIVCMSYAFHTPDKLSFILDLMNGGDLHYHLSQHGVFSEADMRFYAAEIILGLEHMHNRFVVYRDLKPANILLDEHGHVRISDLGLACDFSKKKPHASVGTHGYMAPEVLQKGVAYDSSADWFSLGCMLFKLLRGHSPFRQHKTKDKHEIDRMTLTMAVELPDSFSPELRSLLEGLLQRDVNRRLGCLGRGAQEVKESPFFRSLDWQMVFLQKYPPPLIPPRGEVNAADAFDIGSFDEEDTKGIKLLDSDQELYRNFPLTISERWQQEVAETVFDTINAETDRLEARKKAKNKQLGHEEDYALGKDCIMHGYMSKMGNPFLTQWQRRYFYLFPNRLEWRGEGEAPQSLLTMEEIQSVEETQIKERKCLLLKIRGGKQFILQCDSDPELVQWKKELRDAYREAQQLVQRVPKMKNKPRSPVVELSKVPLVQRGSANGL
notes: G protein-coupled receptor kinase 2 (GRK2), human; also called luciferase-GRK2; WT RlucII-GRK2; source: HEK293T, transfected, in living cells
EC50,L of norepinephrine (low-affinity component of the biphasic BRET curve) (α2AAR-GFP^2 [1]): 7.9 µM

B2: RlucII-GRK2 V7A (enzyme, human, UniProt P25098 1-689, looked up)
chain: B1 chain with V7A
notes: GRK2, human; source: HEK293T, transfected, in living cells
percent reduction of the agonist-promoted BRET relative to WT (α2AAR-GFP^2 [2]): ~55%

B4: RlucII-GRK2 A16V (enzyme, human, UniProt P25098 1-689, looked up)
chain: B1 chain with A16V
notes: as for B2
percent reduction of the agonist-promoted BRET relative to WT (α2AAR-GFP^2 [2]): ~55%

B8: RlucII-GRK2 R195A (enzyme, human, UniProt P25098 1-689, looked up)
chain: B1 chain with R195A
notes: as for B2
percent reduction of the low-affinity BRET component relative to WT (α2AAR-GFP^2 [1]): ~60% | percent reduction of the agonist-promoted BRET signal relative to WT (α2AAR-GFP^2 [2]): 60%

B10: RlucII-GRK2 R587Q (enzyme, human, UniProt P25098 1-689, looked up)
chain: B1 chain with R587Q
notes: as for B2
percent reduction of the NOR-promoted BRET signal relative to WT (α2AAR-GFP^2 [2]): 90%

B11: RlucII-GRK2 L8E (enzyme, human, UniProt P25098 1-689, looked up)
chain: B1 chain with L8E
notes: as for B2
percent reduction of the agonist-promoted BRET relative to WT (α2AAR-GFP^2 [2]): ~55%

B12: RlucII-GRK2 V7E (enzyme, human, UniProt P25098 1-689, looked up)
chain: B1 chain with V7E
notes: as for B2
percent reduction of the agonist-promoted BRET relative to WT (α2AAR-GFP^2 [2]): ~55%

B13: RlucII-GRK2 Y13A (enzyme, human, UniProt P25098 1-689, looked up)
chain: B1 chain with Y13A
notes: as for B2
percent reduction of the low-affinity BRET component relative to WT (α2AAR-GFP^2 [1]): ~70% | percent reduction of the agonist-promoted BRET relative to WT (α2AAR-GFP^2 [2]): ~55%

B16: RlucII-GRK2 V7E/L8E (enzyme, human, UniProt P25098 1-689, looked up)
chain: B1 chain with V7E, L8E
notes: as for B2
percent reduction of receptor recruitment (agonist-promoted BRET) relative to WT (α2AAR-GFP^2 [2]): 69%

The next lines start with the values.

fold recruitment (agonist-promoted BRET) relative to WT (α2AAR-GFP^2 [2]): 2 fold
B3: RlucII-GRK2 D317A (enzyme, human, UniProt P25098 1-689, looked up)
chain: B1 chain with D317A
notes: GRK2, human; catalytically inert mutant; source: HEK293T, transfected, in living cells

percent inhibition of the high-agonist concentration BRET signal relative to WT (α2AAR-GFP^2 [1]): 74%
B5: RlucII-GRK2 V477D (enzyme, human, UniProt P25098 1-689, looked up)
chain: B1 chain with V477D
notes: as for B2

percent reduction of the agonist-promoted BRET relative to WT (α2AAR-GFP^2 [2]): ~55%
B6: RlucII-GRK2 V11A (enzyme, human, UniProt P25098 1-689, looked up)
chain: B1 chain with V11A
notes: as for B2

percent reduction of the agonist-promoted BRET relative to WT (α2AAR-GFP^2 [2]): ~55%
B7: RlucII-GRK2 M17A (enzyme, human, UniProt P25098 1-689, looked up)
chain: B1 chain with M17A
notes: as for B2

fold stimulation of the low-affinity BRET component relative to WT (α2AAR-GFP^2 [1]): 2.6 fold | fold potentiation of the total agonist-induced BRET relative to WT (α2AAR-GFP^2 [2]): 2 fold
B9: RlucII-GRK2 S12A (enzyme, human, UniProt P25098 1-689, looked up)
chain: B1 chain with S12A
notes: as for B2

percent reduction of receptor recruitment (agonist-promoted BRET) relative to WT (α2AAR-GFP^2 [2]): 60%
B14: RlucII-GRK2 V7P (enzyme, human, UniProt P25098 1-689, looked up)
chain: B1 chain with V7P
notes: as for B2

percent reduction of the low-affinity BRET component relative to WT (α2AAR-GFP^2 [1]): ~70% | percent reduction of the agonist-promoted BRET relative to WT (α2AAR-GFP^2 [2]): ~55%
B15: RlucII-GRK2 L4A (enzyme, human, UniProt P25098 1-689, looked up)
chain: B1 chain with L4A
notes: as for B2
